Tested on: S. aureus MRSA-M2
Experiment: murine tibial implant model of S. aureus infection
Type: in vivo
Settings: C57BL/6 mice, tibiae CFU at 21 days post-challenge; 12.5 μg per antigen IP at 28 and 14 days prior to challenge
Description: Mice. Inbred C57BL/6 (6-8 weeks old) were purchased from Jackson Laboratories (Bar Harbor, Me.). Mice were maintained under micro-isolator conditions in the animal facility at the University of Maryland Dental School (Baltimore, Md.), in accordance with protocols reviewed and approved by the Institutional Animal Care and Use Committee (IACUC).
Bacterial strain and preparation of infectious inocula. […] Cells were centrifuged, rinsed with PBS, counted via a Petroff Hausser counter, and diluted to 1×10^6 CFU/ml. […]
Bone Cultures. […] In addition, non-vaccinated mice (alum alone) and mice vaccinated with the quadrivalent vaccine, the single additional antigen SA0119, or all antigens combined were euthanized at 21 days post infection and tibial colony-forming units (CFUs) were determined as described above. Dissemination of the S. aureus infection was monitored by homogenizing kidneys and plating the homogenates as described above.
Statistical Analysis. Mean and SD were calculated and analyzed using Student's t-test with a P value of <0.05 to determine statistical significance. Experiments determining the percentage of mice still infected after vancomycin or PBS treatment were analyzed using Fishers Exact test with a p value of <0.05 for statistical significance. […]

B1: SACOL0119 vaccine: planktonic-specific monovalent vaccine; S. aureus polypeptide SA0119, SEQ ID NO:14 (protein, listed as Staphylococcus aureus)
chain: MKKLATVGSLIVTSTLVFSSMPFQNAHADTTSMNVPNKQSQNVQNHRPYGGVVPQGMTQAQYTELEKTLPQLSAGSNMQDYNMKLYDATQNIADKYNVIITTNVGVFKPHAVRDMNGHALPLTKDGNFYQTNVDANGVNHGGSEMVQNKTGHMSQQDHMNQNTHMNQQPQIQQGHMQSSNHQMMSPKANMHSSNHQMNQSNKKVLPAAGESMTSSILTASIAALLLVSGLFLAFRRRSTNK
B1 was tested. Which “bacterial clearance (percent of animals cleared of S. aureus)” value did it give?
The value was 40%.

— patent publication USRE48137E1, “Multivalent vaccine protection from Staphylococcus aureus infection” (UNIVERSITY OF MARYLAND, BALTIMORE, priority 2012, dated 2020)
